Reference: patent US12723255B2, “Herbicide tolerance genes and methods of use thereof” (priority 2014, dated 2026)
Numbering of substitutions follows the chain as printed. Like-named read-outs stand apart in the source and are kept apart here.

B1: MON-HT52: engineered oxygenase protein, amino acid sequence SEQ ID NO:4 (protein)
chain: MHAALSPLSQRFERIAVQPLTGVLGAEITGVDLREPLDDSTWNEILDAFHTYQVIYFPGQAITNEQQIAFSRRFGPVDPVPLLKSIEGYPEVQMIRREANESGRVIGDDWHTDSTFLDAPPAAVVMRAIDVPEHGGDTGFLSMYTAYDALSDGLKKLISGLNVVHSATRVFGSLYQAQNRRFSNTSVKVMDVDAGDRETVHPLVVTHPGSGRKGLYVNQVYCQRIEGMSEKESEPLLSFLFAHATKPEFTCRVRWKKDQVLVWDNLCTMHYAINDYHGQTRILHRTTVGGVRPAR
B2: MON-HT54: engineered oxygenase protein, amino acid sequence SEQ ID NO:9 (protein)
chain: B1 chain with Q67H, I106L, D193A, A194D, L261V
B3: MON-HT53: engineered oxygenase protein, amino acid sequence SEQ ID NO:7 (protein)
chain: B1 chain with D38S, Q67H, T112S
B4: MON-HT14: engineered oxygenase protein, amino acid sequence SEQ ID NO:48 (protein)
chain: MHAALTPLTNKYRHIDVQPLTGVLGAEITGVDLREPLDDSTWNEILDAFHTYQVIYFPGQAITNEQHIAFSRRFGPVDPVPILKSIEGYPEVQMIRREANESSRYIGDDWHADSTFLDAPPAAVVMRAIEVPEYGGDTGFLSMYSAWETLSPTMQATIEGLNVVHSATKVFGSLYQATNWRFSGTSVKVMDVDAGDRETVHPLVVTHPVTGRRALYCNQVYCQKIQGMTDAESKSLLQFLYEHATQFDFTCRVRWKKDQVLVWDNLCTMHRAVPDYAGKFRYLTRTTVAGDKPSR
B5: MON-HT18: engineered oxygenase protein, amino acid sequence SEQ ID NO:52 (protein)
chain: B4 chain with G184N

Assays:
[1] = high-throughput enzyme assay with crude bacterial extract; assay type: biochemical; conditions: relative to wild-type RdpA; for Average quizalofop-P activity: average of replicates
Method: The high-throughput bacterial protein expression was achieved by synthesizing a recombinant DNA molecule encoding each engineered protein and cloning this into a bacterial expression vector with a C-terminal histidine tag (His-tag) operably linked to the recombinant DNA molecule. The vectors were used to transform Escherichia coli (E. coli), and bacterial expression of the engineered proteins was induced. Overnight E. coli cultures were grown in 96-well plates and the cultures were centrifuged to pellet the bacteria. The bacterial pellets were lysed by adding 100 ul lysis master mix (10 ml of Bacteria Protein Extraction Reagent (B-PER®) II (Pierce Biotechnology, Rockford, IL; cat. no. 78260); 10 ul Lysozyme (10 ug/ml final; Lysozyme American Bioanalytical, Natick, MA; cat. no. AB011780-00005); and 40 ul Benzonase® Nuclease (100 Units/ml final, Novagen, Darmstadt, Germany; cat no 71206-3)) to each well. The plates were vortexed then incubated for 30 minutes at 4° C. 400 ul of MOPS buffer (pH 6.57) was added to cach well and the debris pelleted by centrifugation. The lysate supernatant was carefully removed and used as the crude bacterial extract for subsequent enzymatic analysis.
(§1) The high-throughput herbicide degradation enzyme assay was designed to assay the enzymatic activity of the engineered proteins towards various herbicides using crude bacterial extract. The engineered protein's oxygenase activity (that is, its enzymatic activity) was measured by an end point colorimetric assay utilizing detection of phenol products through measurement of absorbance at 510 nm from 4-aminoantipyrine and potassium ferricyanide. This assay was based on the assay described in Fukomori and Hausinger, Journal of Biological Chemistry (1993) 268(32):24311-24317. Enzyme reactions were assayed in 96-well plates in a total volume of 150ul that contained: 20 mM MOPS pH 6.75, 50-200 uM NH4FeSO4, 50-200 uM sodium ascorbate, 1 mM alpha-ketoglutarate (aKG), 10 ul of E. coli cell lysate containing expressed engineered protein, and substrate (either an AOPP herbicide or phenoxy acid herbicide). […] Absorbance measurements were made on a standard laboratory spectrometer. Assays were scaled as needed to enhance throughput. Standard curves were generated using purified protein or product standards.
Using this high-throughput bacterial protein expression and enzyme assay system, activities of approximately 1200 engineered proteins were measured relative to the activity of a selected wild-type protein, RdpA. In a 96 well plate assay, there were 3 controls (crude bacterial extract without an engineered protein) and 3 positive controls (crude bacterial extract with wild-type protein). The absorbance of the wells was measured and the protein activity was calculated using the following formula:
[formula] where, Activityi is the activity of the sample, Absorbancei is the absorbance of the sample, AbsorbanceWT is the absorbance of the wells containing extract from E. coli expressing the wild-type enzyme, and AbsorbancepET is the absorbance of the wells containing extract from E. coli without an engineered protein. Activity for each unique engineered protein was measured in duplicate and was reported as an average of the two measurements.
Using the information learned from the first assays, protein engineering was then done as described previously to produce additional engineered proteins, which were tested as described in this Example 1. The results of the high-throughput enzyme assay with quizalofop-P as the substrate for five of these additional engineered proteins are provided in Table 2.

[2] = enzyme kinetic measurements with purified protein; assay type: biochemical; conditions: for Km: 0-1280 uM substrate; for Vmax Fenoxaprop / Vmax Fluazifop / Vmax Haloxyfop / Vmax Quizalofop-P: relative values
Method: as §1
Further protein characterization, such as Km, Vmax, and crystal structure analysis, was performed using the five engineered proteins from Table 2. For this detailed analysis, purified protein was prepared as follows: 2 ml overnight cultures of E. coli expressing a transgene encoding a given MON-HT protein were used to inoculate 500 ml of broth and grown at 37° C. for 4 hours followed by culture at 15° C. for approximately 36 hours. Then 250 ml of the 500 ml bacterial culture was pelleted by centrifugation and resuspended in 25 ml of extraction buffer (20 mM Tris, pH 7.8, 300 mM NaCl, 5 mM beta-mercaptoethanol (BME), 20 mM imidazole (Fluka/Sigma-Aldrich, St. Louis, MO), 125 units/ml of benzonase and 10K units/ml of lysozyme (Novagen, Darmstadt, Germany). The cell slurry was passed through a cell disruptor once at 20000 psi and then this cell lysate was clarified by centrifugation at 35,000×g for 20 min at 4° C. The supernatant containing the soluble His-tagged proteins was used for protein purification. For this purification, the supernatant was applied to a 1 ml HisTrap™ FF column (Nickel Sepharose) (GE Healthcare, Piscataway, NJ) using an AKTaxpress™ system (GE Healthcare, Piscataway, NJ) following the standard manufacturer's protocol. The wash buffer consisted of: 20 mM Tris pH 7.8, 300 mM NaCl, 20 mM imidazole and 5 mM BME. The composition of elution buffer was the same as the wash buffer except with 500 mM imidazole. The eluate from the nickel column was desalted on a Quick Spin Protein Sephadex G-25 fine column (Roche Applied Science, Indianapolis, IN) following the manufacturer's protocol. The eluted protein was in buffer consisting of: 20 mM Tris pH 7.8, 50 mM NaCl and 5 mM BME. Protein extract purity was assessed by SDS-PAGE analysis. Protein concentration was determined by Bradford assay using Bio-Rad Protein Assay dye reagent (Biorad, Hercules, CA, cat no 500-0006).
Purified protein for the five engineered proteins was analyzed using the enzyme assay described in this Example 1, but with four different AOPP herbicides as substrates: quizalofop-P, haloxyfop, fenoxaprop, and fluazifop. Standard curves were generated using 2,4-dichlorophenol (2,4-DCP), which was used to produce a general phenol standard curve. The amount of phenol generated in the assay by the engineered proteins was calculated based on this standard curve. The controls were purified wild-type enzyme, no enzyme, and no substrate. Enzyme kinetic measurements of the five engineered proteins was done using 0, 20, 40, 80, 160, 320, 640, or 1280 uM of quizalofop-P, haloxyfop, fenoxaprop, or fluazifop herbicides.

[3] = tested on: transgenic soybean plants; assay: R0 soybean 2,4-D spray test of 2,4-D optimized variants; assay type: in vivo; conditions: for tolerance to 2,4-D treatment: 2× application rate, soy
From the text: An additional five engineered proteins optimized for activity for 2,4-D were then selected for analysis in transgenic soybean. DNA constructs were produced for expressing MON-HT13 (SEQ ID NO:47), MON-HT14 (SEQ ID NO:48), MON-HT15 (SEQ ID NO:49), MON-HT17 (SEQ ID NO:51), and MON-HT18 (SEQ ID NO:52) with codon usage optimized for dicot expression. The operably linked expression elements (promoter, leader, intron, CTP, and 3′UTR) were identical in all of the constructs. Leaf samples were taken from R0 plantlets and single copy plants were identified using a PCR-based assay. When the single-copy R0 plants had approximately two to three trifoliate leaves, they were treated with either 1.5 lb ae/acre (2×) or 3.0 lb ae/acre (4×) of 2,4-D. Seven days after herbicide application, the plants were scored for herbicide injury based on the percent area of the plant showing injury, as indicated above.

[4] = 2,4-D rate 2X (1.5 lb ae/acre), single copy R0 soy, seven days after application

Molecule	Replicate 1 quizalofop-P activity [1]	Replicate 2 quizalofop-P activity [1]	Replicate 3 quizalofop-P activity [1]	Average quizalofop-P activity [1]	Km ([2]; read-out: Km Fenoxaprop) [µM]	Km ([2]; read-out: Km Fluazifop) [µM]	Km ([2]; read-out: Km Haloxyfop) [µM]	Km ([2]; read-out: Km Quizalofop-P) [µM]	Vmax Fenoxaprop [2]	Vmax Fluazifop [2]	Vmax Haloxyfop [2]	Vmax Quizalofop-P [2]	Events with <20% injury [3, 4]	tolerance to 2,4-D treatment [3]	Events with 20-50% injury [3, 4]
B1	92.17	54.46	89.75	78.79	490	14	280	420	420	43	45	39	–	–	–
B2	131.85	149.77	130.56	137.39	2100	–	380	560	630	–	40	32	–	–	–
B3	105.34	105.31	106.13	105.60	1100	1	290	690	640	40	64	95	–	–	–
B4	–	–	–	–	–	–	–	–	–	–	–	–	9	excellent tolerance	–
B5	–	–	–	–	–	–	–	–	–	–	–	–	11	excellent tolerance	1
